How the values were obtained:
CD3ε = target: T1, CD3ε (UniProt P07766 23-126, limits assumed); experiment: SPR, Biacore T200, CD3ε immobilized on CM5, Fab injected
T1 construct: The antigen in the Biacore assay is called only 'CD3ε'; also called CD3ε antigen
Description: The binding affinity of selected Fab variants for CD3ε was measured by SPR with a BIACORE® T200 instrument. Briefly, a series S sensor chip CM5 was activated with 1-ethyl-3-(3-dimethylaminopropyl) carbodiimide (EDC) and N-hydroxysuccinimide (NHS) reagents according to the supplier's instructions, and 5 μg/ml CD3ε in 10 mM sodium acetate (pH4.0) was coupled to achieve 100 response units (RU), except for FC1 (which served as a reference). Unreacted groups were then blocked with 1 M ethanolamine. Next, three-fold serial dilutions of Fab in HBS-P buffer (0.01 M HEPES pH 7.4, 0.15M NaCl, 0.005% surfactant P20) from low (0.02 nM) to high (20 nM) were injected (flow rate: 30 μl/min). The binding responses on Fab were corrected by subtracting of RU from a blank flow cell. The sensorgram was recorded and subject to reference and buffer subtraction before evaluating by BIACORE® T200 Evaluation Software (Version 2.0). Association rates (kₐ) and dissociation rates (kd) were calculated using a simple one-to-one Langmuir binding model. The equilibrium dissociation constant (KD) was calculated as the ratio of kd/kₐ. The binding affinity kinetics were determined for a high-affinity anti-CD3 Fab, 38E4v11, having the heavy chain and light chain variable domain sequences set forth in FIG. 1.

CD3 = experiment: method not stated
Sequence of CD3 (P07766 22-207): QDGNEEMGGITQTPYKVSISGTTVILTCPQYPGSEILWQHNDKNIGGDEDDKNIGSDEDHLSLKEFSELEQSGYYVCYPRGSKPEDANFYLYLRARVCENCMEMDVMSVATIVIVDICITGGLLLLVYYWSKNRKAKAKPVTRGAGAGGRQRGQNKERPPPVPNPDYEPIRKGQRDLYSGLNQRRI

T1 sequence (P07766 23-126 limits assumed): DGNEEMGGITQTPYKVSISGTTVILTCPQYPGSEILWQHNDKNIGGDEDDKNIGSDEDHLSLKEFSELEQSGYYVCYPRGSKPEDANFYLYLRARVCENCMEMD

B1: anti-CD3 Fab 38E4v11 (Fab, V domains shown)
VH: EVQLVQSGAEVKKPGASVKVSCKASGFTFTSYYIHWVRQAPGQGLEWIGWIYPENDNTKYNEKFKDRVTITADTSTSTAYLELSSLRSEDTAVYYCARDGYSRYYFDYWGQGTLVTVSS
VL: DIVMTQSPDSLAVSLGERATINCKSSQSLLNSRTRKNYLAWYQQKPGQSPKLLIYWTSTRKSGVPDRFSGSGSGTDFTLTISSLQAEDVAVYYCTQSFILRTFGQGTKVEIK
notes: Tested as a Fab from a mammalian Fab expression construct with a Flag tag (293T cells, purified on an anti-Flag column)
In the case of B1, the “fold increase in binding affinity relative to parent 38E4v1” value (CD3ε) is reported as over 10 fold.

B2: Ly6G6D (40G5c) TDB (bispecific antibody, part only; not given: anti-Ly6G6D arm and constant regions, V domains shown, not shown: another chain or arm of the molecule; a dimerising Fc or GST; small tags and cut ends)
VH: QVQLQQSGPELVKPGASVKISCKASGYTFTNYYIHWVKQRPGQGLEWIGWIYPGDGNTKYNEKFKGKATLTADTSSSTAYMQLSSLTSEDSAVYYCARDSYSNYYFDYWGQGTTLTVSS
VL: DIVMTQSPSSLAVSAGEKVTMSCKSSQSLLNSRTRKNYLAWYQQKPGQSPKLLIYWASTRESGVPDRFTGSGSGTDFTLTISSVQAEDLAVYYCTQSFILRTFGGGTKLEIK
Work on B2 yielded a Kd (CD3) of 51 nM.

— patent publication US20210244815A1 (Genentech, published 2021)
